From PMC11743776, “Isoxazole-based molecules restore NK cell immune surveillance in hepatocarcinogenesis by targeting TM4SF5 and SLAMF7 linkage” (Signal Transduction and Targeted Therapy, 2025)

T1: TM4SF5 (Homo sapiens, UniProt O14894)
T1 construct: Strep-TM4SF5 WT (pulled down from HEK293FT) or HA-TM4SF5 (immunoprecipitated from Huh7KO)
T1 sequence (O14894 1-197): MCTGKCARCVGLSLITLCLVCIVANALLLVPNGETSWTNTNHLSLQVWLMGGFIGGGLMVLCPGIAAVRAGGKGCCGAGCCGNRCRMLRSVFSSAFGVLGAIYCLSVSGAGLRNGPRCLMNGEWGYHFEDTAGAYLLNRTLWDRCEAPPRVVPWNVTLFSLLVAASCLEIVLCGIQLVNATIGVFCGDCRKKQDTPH


target: T1, TM4SF5; assay: […]-radioligand binding to pulled-down/immunoprecipitated TM4SF5, blocked by cold ST-5-002; EC50 by titration (about […] or […] for the differently tagged proteins); details: not given

EC50 [nM]	Molecule
~850	Cc1ccc(C(=O)Nc2ccc(-c3cc(-c4ccc(O)cc4)no3)cc2)cc1 [ST-5-002, N-(4-(3-(4-hydroxyphenyl)isoxazol-5-yl)phenyl)-4-methylbenzamide]

target: not listed separately; assay: confocal immunofluorescence colocalisation; details: glycan lost; control: FLAG-SLAMF7 WT

Molecule	localisation_or_trafficking
SLAMF7: NQ#6 (protein) parent chain: MAGSPTCLTLIYILWQLTGSAASGPVKELVGSVGGAVTFPLKSKVKQVDSIVWTFNTTPLVTIQPEGGTIIVTQNRNRERVDFPDGGYSLKLSKLKKNDSGIYYVGIYSSSLQQPSTQEYVLHVYEHLSKPKVTMGLQSNKNGTCVTNLTCCMEHGEEDVIYTWKALGQAANESHNGSILPISWRWGESDMTFICVARNPVSRNFSSPILARKLCEGAADDPDSSMVLLCLLLVPLLLSLFVLGLFLWFLKRERQEEYIEEKKRVDICRETPNICPHSGENTEYDTIPHTNRTILKEDPANTVYSTVEIPKKMENPHSLLTMPDTPRLFAYENVI	abolishes
SLAMF7: NQ#456 (protein) parent chain: MAGSPTCLTLIYILWQLTGSAASGPVKELVGSVGGAVTFPLKSKVKQVDSIVWTFNTTPLVTIQPEGGTIIVTQNRNRERVDFPDGGYSLKLSKLKKNDSGIYYVGIYSSSLQQPSTQEYVLHVYEHLSKPKVTMGLQSNKNGTCVTNLTCCMEHGEEDVIYTWKALGQAANESHNGSILPISWRWGESDMTFICVARNPVSRNFSSPILARKLCEGAADDPDSSMVLLCLLLVPLLLSLFVLGLFLWFLKRERQEEYIEEKKRVDICRETPNICPHSGENTEYDTIPHTNRTILKEDPANTVYSTVEIPKKMENPHSLLTMPDTPRLFAYENVI	abolishes
SLAMF7: NQ#123 (protein) parent chain: MAGSPTCLTLIYILWQLTGSAASGPVKELVGSVGGAVTFPLKSKVKQVDSIVWTFNTTPLVTIQPEGGTIIVTQNRNRERVDFPDGGYSLKLSKLKKNDSGIYYVGIYSSSLQQPSTQEYVLHVYEHLSKPKVTMGLQSNKNGTCVTNLTCCMEHGEEDVIYTWKALGQAANESHNGSILPISWRWGESDMTFICVARNPVSRNFSSPILARKLCEGAADDPDSSMVLLCLLLVPLLLSLFVLGLFLWFLKRERQEEYIEEKKRVDICRETPNICPHSGENTEYDTIPHTNRTILKEDPANTVYSTVEIPKKMENPHSLLTMPDTPRLFAYENVI	no change

target: not listed separately; assay: immunoblot of SLAMF7 level with TM4SF5 expression; details: glycan lost; control: WT SLAMF7, TM4SF5 co-expressed

Molecule	expression_or_secretion
SLAMF7: NQ#456 (protein) parent chain: MAGSPTCLTLIYILWQLTGSAASGPVKELVGSVGGAVTFPLKSKVKQVDSIVWTFNTTPLVTIQPEGGTIIVTQNRNRERVDFPDGGYSLKLSKLKKNDSGIYYVGIYSSSLQQPSTQEYVLHVYEHLSKPKVTMGLQSNKNGTCVTNLTCCMEHGEEDVIYTWKALGQAANESHNGSILPISWRWGESDMTFICVARNPVSRNFSSPILARKLCEGAADDPDSSMVLLCLLLVPLLLSLFVLGLFLWFLKRERQEEYIEEKKRVDICRETPNICPHSGENTEYDTIPHTNRTILKEDPANTVYSTVEIPKKMENPHSLLTMPDTPRLFAYENVI	increases
SLAMF7: NQ#1456 (protein) parent chain: MAGSPTCLTLIYILWQLTGSAASGPVKELVGSVGGAVTFPLKSKVKQVDSIVWTFNTTPLVTIQPEGGTIIVTQNRNRERVDFPDGGYSLKLSKLKKNDSGIYYVGIYSSSLQQPSTQEYVLHVYEHLSKPKVTMGLQSNKNGTCVTNLTCCMEHGEEDVIYTWKALGQAANESHNGSILPISWRWGESDMTFICVARNPVSRNFSSPILARKLCEGAADDPDSSMVLLCLLLVPLLLSLFVLGLFLWFLKRERQEEYIEEKKRVDICRETPNICPHSGENTEYDTIPHTNRTILKEDPANTVYSTVEIPKKMENPHSLLTMPDTPRLFAYENVI	increases
SLAMF7: NQ#2 (protein) parent chain: MAGSPTCLTLIYILWQLTGSAASGPVKELVGSVGGAVTFPLKSKVKQVDSIVWTFNTTPLVTIQPEGGTIIVTQNRNRERVDFPDGGYSLKLSKLKKNDSGIYYVGIYSSSLQQPSTQEYVLHVYEHLSKPKVTMGLQSNKNGTCVTNLTCCMEHGEEDVIYTWKALGQAANESHNGSILPISWRWGESDMTFICVARNPVSRNFSSPILARKLCEGAADDPDSSMVLLCLLLVPLLLSLFVLGLFLWFLKRERQEEYIEEKKRVDICRETPNICPHSGENTEYDTIPHTNRTILKEDPANTVYSTVEIPKKMENPHSLLTMPDTPRLFAYENVI	no change
SLAMF7: NQ#123 (protein) parent chain: MAGSPTCLTLIYILWQLTGSAASGPVKELVGSVGGAVTFPLKSKVKQVDSIVWTFNTTPLVTIQPEGGTIIVTQNRNRERVDFPDGGYSLKLSKLKKNDSGIYYVGIYSSSLQQPSTQEYVLHVYEHLSKPKVTMGLQSNKNGTCVTNLTCCMEHGEEDVIYTWKALGQAANESHNGSILPISWRWGESDMTFICVARNPVSRNFSSPILARKLCEGAADDPDSSMVLLCLLLVPLLLSLFVLGLFLWFLKRERQEEYIEEKKRVDICRETPNICPHSGENTEYDTIPHTNRTILKEDPANTVYSTVEIPKKMENPHSLLTMPDTPRLFAYENVI	no change
SLAMF7: NQ#23456 (protein) parent chain: MAGSPTCLTLIYILWQLTGSAASGPVKELVGSVGGAVTFPLKSKVKQVDSIVWTFNTTPLVTIQPEGGTIIVTQNRNRERVDFPDGGYSLKLSKLKKNDSGIYYVGIYSSSLQQPSTQEYVLHVYEHLSKPKVTMGLQSNKNGTCVTNLTCCMEHGEEDVIYTWKALGQAANESHNGSILPISWRWGESDMTFICVARNPVSRNFSSPILARKLCEGAADDPDSSMVLLCLLLVPLLLSLFVLGLFLWFLKRERQEEYIEEKKRVDICRETPNICPHSGENTEYDTIPHTNRTILKEDPANTVYSTVEIPKKMENPHSLLTMPDTPRLFAYENVI	increases
SLAMF7: NQ#3 (protein) parent chain: MAGSPTCLTLIYILWQLTGSAASGPVKELVGSVGGAVTFPLKSKVKQVDSIVWTFNTTPLVTIQPEGGTIIVTQNRNRERVDFPDGGYSLKLSKLKKNDSGIYYVGIYSSSLQQPSTQEYVLHVYEHLSKPKVTMGLQSNKNGTCVTNLTCCMEHGEEDVIYTWKALGQAANESHNGSILPISWRWGESDMTFICVARNPVSRNFSSPILARKLCEGAADDPDSSMVLLCLLLVPLLLSLFVLGLFLWFLKRERQEEYIEEKKRVDICRETPNICPHSGENTEYDTIPHTNRTILKEDPANTVYSTVEIPKKMENPHSLLTMPDTPRLFAYENVI	no change
SLAMF7: NQ#1 (protein) parent chain: MAGSPTCLTLIYILWQLTGSAASGPVKELVGSVGGAVTFPLKSKVKQVDSIVWTFNTTPLVTIQPEGGTIIVTQNRNRERVDFPDGGYSLKLSKLKKNDSGIYYVGIYSSSLQQPSTQEYVLHVYEHLSKPKVTMGLQSNKNGTCVTNLTCCMEHGEEDVIYTWKALGQAANESHNGSILPISWRWGESDMTFICVARNPVSRNFSSPILARKLCEGAADDPDSSMVLLCLLLVPLLLSLFVLGLFLWFLKRERQEEYIEEKKRVDICRETPNICPHSGENTEYDTIPHTNRTILKEDPANTVYSTVEIPKKMENPHSLLTMPDTPRLFAYENVI	no change
SLAMF7: NQ#2456 (protein) parent chain: MAGSPTCLTLIYILWQLTGSAASGPVKELVGSVGGAVTFPLKSKVKQVDSIVWTFNTTPLVTIQPEGGTIIVTQNRNRERVDFPDGGYSLKLSKLKKNDSGIYYVGIYSSSLQQPSTQEYVLHVYEHLSKPKVTMGLQSNKNGTCVTNLTCCMEHGEEDVIYTWKALGQAANESHNGSILPISWRWGESDMTFICVARNPVSRNFSSPILARKLCEGAADDPDSSMVLLCLLLVPLLLSLFVLGLFLWFLKRERQEEYIEEKKRVDICRETPNICPHSGENTEYDTIPHTNRTILKEDPANTVYSTVEIPKKMENPHSLLTMPDTPRLFAYENVI	increases

target: not listed separately; assay: immunoblot of SLAMF7 in co-transfected SNU761 cells; details: glycan lost; control: Strep-TM4SF5 WT

Molecule	other: downregulation of SLAMF7 level
TM4SF5: Gly− (protein) parent chain: MCTGKCARCVGLSLITLCLVCIVANALLLVPNGETSWTNTNHLSLQVWLMGGFIGGGLMVLCPGIAAVRAGGKGCCGAGCCGNRCRMLRSVFSSAFGVLGAIYCLSVSGAGLRNGPRCLMNGEWGYHFEDTAGAYLLNRTLWDRCEAPPRVVPWNVTLFSLLVAASCLEIVLCGIQLVNATIGVFCGDCRKKQDTPH	abolishes
